This is an account of results in patent publication US7094554.

Assay [1] concerns the target P. gossypiella (pink bollworm) midgut brush border membrane vesicle (BBMV) proteins (Pectinophora gossypiella). Kind of assay: saturation binding, fixed 125I-toxin with increasing BBMV.
The target is the same in assay [2]. Kind of assay: homologous competition, 125I-Cry1Ac against unlabeled Cry1Ac on BBMV.
Assay [3] has the same target. Kind of assay: homologous competition assay, 125I-toxin on BBMV.
Assay [4] shares this target. As to the kind of experiment: competition with 125I-Cry1Ac on BBMV, 1000 nM unlabeled toxin.
The target is the same in assay [5]. Kind of assay: competition with 125I-Cry1Ac on BBMV.
Assay [6] has the same target. As to the kind of experiment: homologous competition, 125I-Cry1Aa against unlabeled Cry1Aa on BBMV.
The target is the same in assay [7]. As to the kind of experiment: homologous competition, 125I-Cry1Ab against unlabeled Cry1Ab on BBMV.

What is called IC50 is the midpoint of a concentration-inhibition curve. Higher therefore signals a need for much substance. As a reminder, the Kd is the concentration at which binding is half-saturated. Lower therefore signals higher affinity. As for “Cry1Ac toxin (trypsinized 60 kD toxin) (from UniProt P05068 29-623) (ligand)”, in assay [1], the fold difference in binding compared to Cry1Ab stood at 30 fold, the fold higher binding compared to Cry1Aa came out at 4 fold and the maximum saturable binding at 400 µg/ml of BBMV amounted to 1.5 ng. Further, in assay [2], the IC50 was 10 nM. Also, in assay [3], the dissociation constant (Kd) worked out at 12.8 nM and the concentration of binding sites (Bmax) came out at 8.6 pmol/mg. The percent reduction of 125I-Cry1Ac binding at 1000 nM in assay [4] came out at 95%. Further, the IC50 in assay [5] is 10 nM.
On to “Cry1Aa toxin (trypsinized 60 kD toxin) (from UniProt P0A366 29-619) (ligand)”, for which the maximum saturable binding at 400 µg/ml of BBMV in assay [1] came to 0.35 ng. The substance further came in with an IC50 in assay [6] of 10 nM. Moreover, in assay [3], the Kd came to 16.5 nM and the concentration of binding sites (Bmax) came out at 3.7 pmol/mg. In assay [4], this substance returned a percent reduction of 125I-Cry1Ac binding at 1000 nM of 80%. The substance also yielded an IC50 in assay [5] of 100 nM.
In assay [1], “Cry1Ab toxin (trypsinized 60 kD toxin) (from UniProt P0A370 29-620) (ligand)” came in with a maximum saturable binding at 400 µg/ml of BBMV of 0.05 ng. Further, the IC50 came to 10 nM in assay [7] and 100 nM in assay [5]. For the same substance, the Kd in assay [3] stood at 12.4 nM. The substance further returned a concentration of binding sites (Bmax) in assay [3] of 3.6 pmol/mg. The percent reduction of 125I-Cry1Ac binding at 1000 nM in assay [4] stood at 82%.
